According to publication PMC8643669 (Nucleic Acids Research, 2021):
Values belong to the binder of their own block, whether it stands above or below them.

Key:
[1] = target: T1, purified recombinant nuclear cap-binding complex (CBC; heterodimer of CBP80 and CBP20) (human, UniProt Q09161;P52298); assay: pull-down
T1 sequence 1: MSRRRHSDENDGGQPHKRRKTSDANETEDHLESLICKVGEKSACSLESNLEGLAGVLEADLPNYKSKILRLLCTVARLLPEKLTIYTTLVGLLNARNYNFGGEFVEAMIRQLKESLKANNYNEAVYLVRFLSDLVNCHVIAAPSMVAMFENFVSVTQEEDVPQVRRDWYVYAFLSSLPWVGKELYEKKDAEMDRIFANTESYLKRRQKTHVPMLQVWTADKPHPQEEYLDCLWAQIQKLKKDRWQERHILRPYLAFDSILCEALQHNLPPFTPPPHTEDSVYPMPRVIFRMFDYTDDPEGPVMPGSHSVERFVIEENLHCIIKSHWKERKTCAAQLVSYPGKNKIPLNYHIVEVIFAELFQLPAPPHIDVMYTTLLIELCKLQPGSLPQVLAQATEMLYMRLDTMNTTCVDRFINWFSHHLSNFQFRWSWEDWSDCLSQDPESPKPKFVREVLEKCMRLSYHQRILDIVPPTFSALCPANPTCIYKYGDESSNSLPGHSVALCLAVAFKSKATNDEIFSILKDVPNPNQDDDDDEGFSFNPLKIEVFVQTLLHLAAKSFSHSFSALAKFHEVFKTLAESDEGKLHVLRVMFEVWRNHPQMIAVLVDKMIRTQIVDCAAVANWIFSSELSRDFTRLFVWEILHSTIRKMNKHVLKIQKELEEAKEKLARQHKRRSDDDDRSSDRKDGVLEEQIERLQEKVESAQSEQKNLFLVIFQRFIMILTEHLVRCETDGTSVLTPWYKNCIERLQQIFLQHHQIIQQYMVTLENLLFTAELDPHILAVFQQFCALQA
T1 sequence 2: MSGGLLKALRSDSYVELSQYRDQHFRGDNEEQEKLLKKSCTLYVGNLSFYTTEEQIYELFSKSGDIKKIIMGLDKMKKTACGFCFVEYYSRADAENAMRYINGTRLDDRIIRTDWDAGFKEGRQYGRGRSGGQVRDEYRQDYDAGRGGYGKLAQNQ

[2] = target: T2, CBP80, subunit of the purified recombinant CBC (human, UniProt Q09161 1-790); assay: far-Western, overlay or dot blot
T2 sequence: T1 sequence 1

binding result [1]: binds
B1: purified recombinant FLAG-SRP54-NG (residues 1-293) (domain or fragment)
chain: MVLADLGRKITSALRSLSNATIINEEVLNAMLKEVCTALLEADVNIKLVKQLRENVKSAIDLEEMASGLNKRKMIQHAVFKELVKLVDPGVKAWTPTKGKQNVIMFVGLQGSGKTTTCSKLAYYYQRKGWKTCLICADTFRAGAFDQLKQNATKARIPFYGSYTEMDPVIIASEGVEKFKNENFEIIIVDTSGRHKQEDSLFEEMLQVANAIQPDNIVYVMDASIGQACEAQAKAFKDKVDVASVIVTKLDGHAKGGGALSAVAATKSPIIFIGTGEHIDDFEPFKTQPFISK

binding result [2]: binds
B2: FLAG-SRP54 full-length (p3×FLAG-SRP54-FL) (natural protein)
chain: MVLADLGRKITSALRSLSNATIINEEVLNAMLKEVCTALLEADVNIKLVKQLRENVKSAIDLEEMASGLNKRKMIQHAVFKELVKLVDPGVKAWTPTKGKQNVIMFVGLQGSGKTTTCSKLAYYYQRKGWKTCLICADTFRAGAFDQLKQNATKARIPFYGSYTEMDPVIIASEGVEKFKNENFEIIIVDTSGRHKQEDSLFEEMLQVANAIQPDNIVYVMDASIGQACEAQAKAFKDKVDVASVIVTKLDGHAKGGGALSAVAATKSPIIFIGTGEHIDDFEPFKTQPFISKLLGMGDIEGLIDKVNELKLDDNEALIEKLKHGQFTLRDMYEQFQNIMKMGPFSQILGMIPGFGTDFMSKGNEQESMARLKKLMTIMDSMNDQELDSTDGAKVFSKQPGRIQRVARGSGVSTRDVQELLTQYTKFAQMVKKMGGIKGLFKGGDMSKNVSQSQMAKLNQQMAKMMDPRVLHHMGGMAGLQSMMRQFQQGAAGNMKGMMGFNNM
